Target: endogenous SHP-1 (UniProt P29351)
Assay: GST pull-down of endogenous macrophage SHP-1
Settings: reference: wild type

Row | Substance | binding against the reference (sites Y490) | binding against the reference (sites Y519)
1 | EHEC (EDL933) Tir (from UniProt Q7DB77) Y490F | weaker | –
2 | EHEC (EDL933) Tir (from UniProt Q7DB77) Y519F | – | weaker

From publication PMC6542180
